{
  "source": "paper PMC11997425",
  "about": "“MADS-domain transcription factor AGAMOUS LIKE-9 participates in the gibberellin pathway to promote bud dormancy release of tree peony”",
  "binders": {"B1": {"name": "PsEBB3 CArG probe (dsDNA)", "DNA 1": "ATGTCCATAATTTAGGCCTA", "DNA 2": "TAGGCCTAAATTATGGACAT"}, "B2": {"name": "PsCYCD mutant probe (cold-mP) (dsDNA)", "DNA 1": "TTTGGCCGACCGGGGTTAA", "DNA 2": "TTAACCCCGGTCGGCCAAA"}, "B3": {"name": "PsCYCD CArG probe (dsDNA)", "DNA 1": "TTTGGCCAATTTTGGTTAA", "DNA 2": "TTAACCAAAATTGGCCAAA"}},
  "key": {"GST-PsAGL9 [1]": {"molecular_target": "T1, GST-PsAGL9 (Paeonia suffruticosa, UniProt V9I0Q3 1-243)", "T1 sequence (V9I0Q3 entry or part of it)": "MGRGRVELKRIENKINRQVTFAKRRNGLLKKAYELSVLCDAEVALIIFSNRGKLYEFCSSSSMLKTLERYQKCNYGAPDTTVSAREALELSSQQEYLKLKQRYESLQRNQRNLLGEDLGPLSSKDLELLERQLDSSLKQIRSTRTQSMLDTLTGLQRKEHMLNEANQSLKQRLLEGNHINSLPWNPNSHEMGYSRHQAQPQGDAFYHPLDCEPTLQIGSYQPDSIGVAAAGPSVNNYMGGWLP", "experiment": "EMSA; Chemiluminescent EMSA Kit (Beyotime); buffer, salt, pH and temperature not stated", "details": "protein: recombinant; tags: GST (pGEX-4T-1); label: biotin"}, "GST-PsAGL9 [2]": {"molecular_target": "T1, GST-PsAGL9", "experiment": "competition; 10x and 20x cold mutant probe did not affect signal; Chemiluminescent EMSA Kit (Beyotime); buffer, salt, pH and temperature not stated", "details": "protein: recombinant; tags: GST (pGEX-4T-1)"}, "GST-PsAGL9 [3]": {"molecular_target": "T1, GST-PsAGL9", "experiment": "EMSA; 10x and 20x cold probe weakened signal; Chemiluminescent EMSA Kit (Beyotime); buffer, salt, pH and temperature not stated", "details": "protein: recombinant; tags: GST (pGEX-4T-1); label: biotin; blunt"}},
  "data": [
    {"binder": "B1", "values": [
      {"measurement": "binding result", "setting": "GST-PsAGL9 [1]", "result": "binds"}
    ]},
    {"binder": "B2", "values": [
      {"measurement": "binding result", "setting": "GST-PsAGL9 [2]", "result": "no binding"}
    ]},
    {"binder": "B3", "values": [
      {"measurement": "binding result", "setting": "GST-PsAGL9 [3]", "result": "binds"}
    ]}
  ]
}
